Source: patent US7449563B2, “Methods and compositions for destabilizing microtubules” (Academia Sinica, priority 2003, dated 2008)
No end group written: not given here.

B1: L353P: PN2-3 polypeptide with L353 mutated to proline (protein, listed as Homo sapiens)
chain: MFLMPTSSELNSGQNFLTQWMTNPSRAGVILNRGFPILEADKEKRAAVDISTSFPIKGTHFSDSFSFINEEDSLLEEQKLESNNPYKPQSDKSETHTAFPCIKKGPQVAACHSAPGHQEENKNDFIPDRASEFKEGAYKDPLFKKLEQLKEVQQKKQEQLKRQQLEQLQRLMEEQEKLLTMVSGQCTLPGLSLLPDDQSQKHRSPGNTTTGERATCCFPSYVYPDPTQEETYPSNILSHEQSNFCRTAHGDFVLTSKRASPNLFSEAQYQEAPVEKNNLKEENRNHPTGESILCWEKVTEQIQEANDKNLQKHDDSSEVANIEERPIKAAIGERKQTFEDYLEEQIQLEEQEPKQKQLKEAEGPLPIKAKPKQPFLKRGEGLARFTNAKSKFQKGKESKLVTNQSTSEDQPLFKMDRQQLQRKTALKNKELCADNPILKKDSKARTKSGSVTLSQKPKMLKCSNRKSLSPSGLKIQTGKKCDGQFRDQIKFENKVTSNNKENVTECPKPCDTGCTGWNKTQGKDRLPLSTGPASRLAAKSPIRETMKESESSLDVSLQKKLETWEREKEKENLELDEFLFLEQAADEISFSSNSSFVLKILERDQQICKGHRMSSTPVKAVPQKTNPADPISHCNRSEDLDHTAREKESECEVAPKQLHSLSSADELREQPCKIRKAVQKSTSENQTEWNARDDEGVPNSDSSTDSEEQLDVTIKPSTEDRERGISSREDSPQVCDDKGPFKDTRTQEDKRRDVDLDLSDKDYSSDESIMESIKHKVSEPSRSSSLSLSKMDFDDERTWTDLEENLCNHDVVLGNESTYGTPQTCYPNNEIGILDKTIKRKIAPVKRGEDLSKSRRSRSPPTSELMMKFFPSLKPKPKSDSHLGNELKLNISQDQPPGDNARSQVLREKIIELETEIEKFKAENASLAKLRIERESALEKLRKEIADFEQQKAKELARIEEFKKEEMRKLQKERKVFEKYTTAARTFPDKKEREEIQTLKQQIADLREDLKRKETKWSSTHSRLRSQIQMLVRENTDLREEIKVMERFRLDAWKRAEAIESSLEVEKKDKLANTSVRFQNSQISSGTQVEKYKKNYLPMQGNPPRRSKSAPPRDLGNLDKGQAASPREPLEPLNFPDPEYKEEEEDQDIQGEISHPDGKVEKVYKNGCRVILFPNGTRKEVSADGKTITVTFFNGDVKQVMPDQRVIYYYAAAQTTHTTYPEGLEVLHFSSGQIEKHYPDGRKEITFPDQTVKNLFPDGQEESIFPDGTIVRVQRDGNKLIEFNNGQRELHTAQFKRREYPDGTVKTVYANGHQETKYRSGRIRVKDKEGNVSMDTEL
B2: GFP-CPAP-fl: GFP-tagged full-length CPAP polypeptide, residues 1-1338, expressed from a transfected vector (protein, UniProt Q9HC77 1-1338, looked up)
chain: MFLMPTSSELNSGQNFLTQWMTNPSRAGVILNRGFPILEADKEKRAAVDISTSFPIKGTHFSDSFSFINEEDSLLEEQKLESNNPYKPQSDKSETHTAFPCIKKGPQVAACHSAPGHQEENKNDFIPDLASEFKEGAYKDPLFKKLEQLKEVQQKKQEQLKRQQLEQLQRLMEEQEKLLTMVSGQCTLPGLSLLPDDQSQKHRSPGNTTTGERATCCFPSYVYPDPTQEETYPSNILSHEQSNFCRTAHGDFVLTSKRASPNLFSEAQYQEAPVEKNNLKEENRNHPTGESILCWEKVTEQIQEANDKNLQKHDDSSEVANIEERPIKAAIGERKQTFEDYLEEQIQLEEQELKQKQLKEAEGPLPIKAKPKQPFLKRGEGLARFTNAKSKFQKGKESKLVTNQSTSEDQPLFKMDRQQLQRKTALKNKELCADNPILKKDSKARTKSGSVTLSQKPKMLKCSNRKSLSPSGLKIQTGKKCDGQFRDQIKFENKVTSNNKENVTECPKPCDTGCTGWNKTQGKDRLPLSTGPASRLAAKSPIRETMKESESSLDVSLQKKLETWEREKEKENLELDEFLFLEQAADEISFSSNSSFVLKILERDQQICKGHRMSSTPVKAVPQKTNPADPISHCNRSEDLDHTAREKESECEVAPKQLHSLSSADELREQPCKIRKAVQKSTSENQTEWNARDDEGVPNSDSSTDSEEQLDVTIKPSTEDRERGISSREDSPQVCDDKGPFKDTRTQEDKRRDVDLDLSDKDYSSDESIMESIKHKVSEPSRSSSLSLSKMDFDDERTWTDLEENLCNHDVVLGNESTYGTPQTCYPNNEIGILDKTIKRKIAPVKRGEDLSKSRRSRSPPTSELMMKFFPSLKPKPKSDSHLGNELKLNISQDQPPGDNARSQVLREKIIELETEIEKFKAENASLAKLRIERESALEKLRKEIADFEQQKAKELARIEEFKKEEMRKLQKERKVFEKYTTAARTFPDKKEREEIQTLKQQIADLREDLKRKETKWSSTHSRLRSQIQMLVRENTDLREEIKVMERFRLDAWKRAEAIESSLEVEKKDKLANTSVRFQNSQISSGTQVEKYKKNYLPMQGNPPRRSKSAPPRDLGNLDKGQAASPREPLEPLNFPDPEYKEEEEDQDIQGEISHPDGKVEKVYKNGCRVILFPNGTRKEVSADGKTITVTFFNGDVKQVMPDQRVIYYYAAAQTTHTTYPEGLEVLHFSSGQIEKHYPDGRKEITFPDQTVKNLFPDGQEESIFPDGTIVRVQRDGNKLIEFNNGQRELHTAQFKRREYPDGTVKTVYANGHQETKYRSGRIRVKDKEGNVLMDTEL
modifications: full-length GFP tag
notes: GFP-tagged full-length CPAP polypeptide, residues 1-1338, expressed from a transfected vector
B3: GST-PN2: GST fusion polypeptide corresponding to amino acid residues 132-422 of CPAP (protein, UniProt Q9HC77 132-422, looked up, fragment)
chain: EFKEGAYKDPLFKKLEQLKEVQQKKQEQLKRQQLEQLQRLMEEQEKLLTMVSGQCTLPGLSLLPDDQSQKHRSPGNTTTGERATCCFPSYVYPDPTQEETYPSNILSHEQSNFCRTAHGDFVLTSKRASPNLFSEAQYQEAPVEKNNLKEENRNHPTGESILCWEKVTEQIQEANDKNLQKHDDSSEVANIEERPIKAAIGERKQTFEDYLEEQIQLEEQELKQKQLKEAEGPLPIKAKPKQPFLKRGEGLARFTNAKSKFQKGKESKLVTNQSTSEDQPLFKMDRQQLQR
modifications: GST tag
notes: GST fusion polypeptide corresponding to amino acid residues 132-422 of CPAP
B4: PN2-3: PN2-3 polypeptide with wild-type CPAP sequence, residues 311-422 of SEQ ID NO:1, expressed using pET vectors (protein, listed as Homo sapiens)
chain: QKHDDSSEVANIEERPIKAAIGERKQTFEDYLEEQIQLEEQELKQKQLKEAEGPLPIKAKPKQPFLKRGEGLARFTNAKSKFQKGKESKLVTNQSTSEDQPLFKMDRQQLQR

Tests used:
[1] = target: T1, microtubule nucleation from purified centrosomes (bovine brain tubulin) (Bos taurus, UniProt P81947+Q6B856); test: In vitro centrosome-dependent microtubule nucleation assay; type: biochemical; settings: for Effect of synthetic peptide on centrosome-dependent microtubule nucleation (in words): 20 μM or 40 μM peptide; for Inhibition of microtubule nucleation/assembly from purified centrosomes (in words): in vitro
T1 construct: containing 125 μg bovine brain tubulin (Cytoskeleton, Denver, Colo.); purchased Cytoskeleton, Denver, Colo; host or cells: bovine brain (tissue-purified)
T1 sequence (P81947 whole entry): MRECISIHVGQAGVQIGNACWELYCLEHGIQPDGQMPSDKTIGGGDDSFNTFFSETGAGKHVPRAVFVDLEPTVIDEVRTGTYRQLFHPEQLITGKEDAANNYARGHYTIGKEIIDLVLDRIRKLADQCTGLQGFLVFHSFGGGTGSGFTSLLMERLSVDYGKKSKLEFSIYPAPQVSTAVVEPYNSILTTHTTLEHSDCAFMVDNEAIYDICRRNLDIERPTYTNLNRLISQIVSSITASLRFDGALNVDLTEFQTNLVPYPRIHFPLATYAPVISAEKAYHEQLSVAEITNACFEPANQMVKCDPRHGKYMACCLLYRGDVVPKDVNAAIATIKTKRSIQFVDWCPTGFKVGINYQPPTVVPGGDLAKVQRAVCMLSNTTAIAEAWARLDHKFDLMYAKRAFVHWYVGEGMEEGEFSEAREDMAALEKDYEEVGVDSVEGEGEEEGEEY
T1 sequence (Q6B856 whole entry): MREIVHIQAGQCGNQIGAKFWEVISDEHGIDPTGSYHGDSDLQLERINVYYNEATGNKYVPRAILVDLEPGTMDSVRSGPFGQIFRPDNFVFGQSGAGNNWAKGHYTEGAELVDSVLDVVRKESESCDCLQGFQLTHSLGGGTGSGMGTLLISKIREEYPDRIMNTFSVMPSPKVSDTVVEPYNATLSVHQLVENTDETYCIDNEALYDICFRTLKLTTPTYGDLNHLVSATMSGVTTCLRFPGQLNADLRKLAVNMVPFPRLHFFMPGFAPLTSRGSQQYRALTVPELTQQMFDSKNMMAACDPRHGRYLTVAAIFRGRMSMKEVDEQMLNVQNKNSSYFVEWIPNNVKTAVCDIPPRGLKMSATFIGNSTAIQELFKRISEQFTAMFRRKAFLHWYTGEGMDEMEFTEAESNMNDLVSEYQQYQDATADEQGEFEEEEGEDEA
Procedure: In vitro Centrosome-Dependant Microtubule Nucleation Assay
Isolation of centrosomes and microtubule nucleation tests were performed as described (Hung et al., 2000). To investigate the effect of different GST-truncated CPAP fusion proteins on microtubule nucleation, purified centrosomes (4 μl per reaction) were pre-incubated with the various truncated GST-CPAP fusion proteins or FPLC purified synthetic peptides for 10 min at 4° C. The reaction mixtures were then incubated in 65 μl RG1 buffer (80 mM PIPES, pH 6.8, 1 mM EGTA, 1 mM MgCl2, and 1 mM GTP) containing 125 μg bovine brain tubulin (Cytoskeleton, Denver, Colo.) for 4 min at 37° C.
Microtubules present in the reaction mixtures were fixed in 200 μl 1% glutaraldehyde in RG1 buffer, sedimented onto acid-treated coverslips, and subjected to immunofluoresence analysis using anti-α-tubulin monoclonal antibodies N356 (Amersham, Piscataway, N.J.) or FITC-conjugated anti-α-tubulin monoclonal antibodies (DM1A-FITC; Sigma, Saint Louis, Mo.). Truncated GST-CPAP proteins were detected using an anti-GST polyclonal antibody (Molecular Probes, Cincinnati, Ohio). The extent of microtubule assembly in each reaction was determined microscopically by comparing the extent of microtubule formation on each coverslip. Decreased microtubule formation in reactions comprising polypeptides derived from CPAP indicated the ability of such polypeptides to inhibit centrosome-dependent microtubule assembly.

HeLa cells = test: Cell-based assay for CPAP activity: microtubule reassembly in cold-treated transfected HeLa cells; design: species or system human; settings: for Inhibition of microtubule reassembly in cold-treated mitotic cells (in words): transiently transfected HeLa cells
Procedure: Cell Culture and Transfection
HeLa cells were maintained in DMEM supplemented with 10% fetal bovine serum. cDNA clones encoding different portions of CPAP were subcloned, in an appropriate reading frame, into the CMV promoter-driven EGFP-C1 expression vector (Clontech, Palo Alto, Calif.). Transient transfections were performed using Lipofectamine 2000 (Invitrogen, Carlsbad, Calif.) according to the manufacturer's instructions.
Cold Treatment, Immunofluorescence and Confocal Microscopy
HeLa cells were grown on coverslips for at least 24 hr. Cold treatment was performed by incubating the cells at 4° C. for 1 hr, then replacing the cold medium with medium warmed to 30° C. and incubating the cells for 2 min at 30° C. The cells were then fixed with 1% formaldehyde for 30 min at room temperature.
The fixed cells were incubated in the presence of anti-α-tubulin monoclonal antibodies (N356, Amersham, Piscataway, N.J.) and anti-γ-tubulin polyclonal antibodies (Sigma, Saint Louis, Mo.). Bound anti-α-tubulin monoclonal antibodies (N356) were detected with Alexa 568, a Texas Red-conjugated goat anti-mouse IgG, or Alexa 647, a far-red fluorophore-conjugated goat anti-mouse IgG. Bound anti-γ-tubulin polyclonal antibodies were detected with Alexa 568 (Molecular Probes Inc.). The resulting […] signals were detected using a laser scanning confocal system (MRC 1000, Bio-Rad Laboratories, Hercules, Calif.).
The effect of various polypeptides derived from CPAP was determined by evaluating the amounts of mitotic spindle formation in the transfected cells. Decreased mitotic spindle formation indicated the presence of an activity that inhibited microtubule formation or destabilized microtubules.

| Molecule | Effect of synthetic peptide on centrosome-dependent microtubule nucleation (in words) [1] | Inhibition of microtubule nucleation/assembly from purified centrosomes (in words) [1] | further results |
| --- | --- | --- | --- |
| peptide C1: synthetic peptide, amino acid residues 363-392 of CPAP (SEQ ID NO:1) (GPLPIKAKPKQPFLKRGEGLARFTNAKSKF; listed as Homo sapiens) | No effect | – | – |
| GFP-PN2-1: GFP-tagged CPAP residues 132-190 (EFKEGAYKDPLFKKLEQLKEVQQKKQEQLKRQQLEQLQRLMEEQEKLLTMVSGQCTLPG; also: GFP tag, terminus not given here; UniProt Q9HC77 132-190, looked up, fragment) | – | – | Inhibition of microtubule reassembly in cold-treated mitotic cells (in words) (HeLa cells): no significant inhibition |
| peptide C2: synthetic peptide, amino acid residues 393-423 of CPAP (SEQ ID NO:1) (QKGKESKLVTNQSTSEDQPLFKMDRQQLQRK; listed as Homo sapiens) | No effect | – | – |
| peptide N: synthetic peptide, amino acid residues 310-329 of CPAP (SEQ ID NO:1) (LQKHDDSSEVANIEERPIKA; listed as Homo sapiens) | No effect | – | – |
| GST-PN2-3C: GST fusion with PN2-3C, amino acid residues 369-422 of CPAP (non-helical motif) (AKPKQPFLKRGEGLARFTNAKSKFQKGKESKLVTNQSTSEDQPLFKMDRQQLQR; also: GST tag, terminus not given here; UniProt Q9HC77 369-422, looked up, fragment) | – | less inhibition | – |
| peptide H2: synthetic peptide, amino acid residues 327-362 of CPAP (SEQ ID NO:1) (IKAAIGERKQTFEDYLEEQIQLEEQELKQKQLKEAE; listed as Homo sapiens) | No effect | – | – |
| B1 | – | showed the ability to inhibit microtubule assembly | – |
| B2 | – | – | Inhibition of microtubule reassembly in cold-treated cells (in words) (HeLa cells; transfected HeLa cells expressing lower levels of the construct): no significant inhibition; Inhibition of microtubule reassembly in cold-treated mitotic cells (in words) (HeLa cells): significantly inhibited microtubule reassembly |
| B3 | – | inhibited | – |
| B4 | – | showed the ability to inhibit microtubule assembly | – |
